Results reported in article PMC2695464, “On the mechanism of autoinhibition of the RhoA-specific nucleotide exchange factor PDZRhoGEF” (BMC Structural Biology, 2009).

Target: human RhoA^F25N (residues 1–181) (human, UniProt P61586 1-181, F25N)
Experiment: cell-based or functional assay

human RhoA^F25N (residues 1–181), sequence (P61586 1-181 F25N): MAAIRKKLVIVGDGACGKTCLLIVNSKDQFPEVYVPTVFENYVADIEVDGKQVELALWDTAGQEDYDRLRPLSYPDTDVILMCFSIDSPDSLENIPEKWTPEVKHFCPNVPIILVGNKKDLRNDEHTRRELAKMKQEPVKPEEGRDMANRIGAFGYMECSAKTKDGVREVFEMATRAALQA

B1: PRG^4R: PRG^672–1081 with D706R, E708R, E710R, D712R (domain or fragment, human, UniProt O15085 672-1081, looked up)
chain: TPKMGRRSIESPSLGFCTDTLLPHLLEDDLGQLSRLRPRPRAQNWQHTVGKDVVAGLTQREIDRQEVINELFVTEASHLRTLRVLDLIFYQRMKKENLMPREELARLFPNLPELIEIHNSWCEAMKKLREEGPIIKEISDLMLARFDGPAREELQQVAAQFCSYQSIALELIKTKQRKESRFQLFMQEAESHPQCRRLQLRDLIISEMQRLTKYPLLLESIIKHTEGGTSEHEKLCRARDQCREILKYVNEAVKQTENRHRLEGYQKRLDATALERASNPLAAEFKSLDLTTRKMIHEGPLTWRISKDKTLDLHVLLLEDLLVLLQKQDEKLLLKCHSKTAVGSSDSKQTFSPVLKLNAVLIRSVATDKRAFFIICTSKLGPPQIYELVALTSSDKNTWMELLEEAVRNA
catalytic activity in the nucleotide exchange assay on RhoA (mant-GTP fluorescence): 3.3 fold over the isolated DH-PH tandem
